# Laboratory results: US20230220443A1, “CHARACTERIZATION OF S-ADENOSYL-L-METHIONINE-CONSUMING ENZYMES WITH 1-STEP EZ-MTASE: A UNIVERSAL COUPLED-ASSAY” (ALBERT EINSTEIN COLLEGE OF MEDICINE, priority 2017, published 2023)
# Where two headings read alike, the source gives them in different places.
# Assays:
# [1] = tested on: deaminase PA3170; test: Deamination of 5DOA by PA3170; type: biochemical, Pseudomonas aeruginosa
# Description: FIG. 3A-3C. The reaction catalyzed by deaminase PA3170 and its use as a coupling enzyme for monitoring radical SAM (RS) enzymes activity. (A) The 5′-deoxy-adenosine (5DOA) by-product of radical SAM enzyme reactions is efficiently converted into its inosyl-derivative (5DOI) by the deaminase PA3170. (B) The […] conversion is confirmed by HPLC as these two molecules have distinct retention times. The different spectral signatures between 5DOA and 5DOI (λmax1=259 nm and λmax2=249 nm, respectively) allow continuous monitoring of […] through UV-detection.
# [2] = molecular target: GNMT (Rattus norvegicus, UniProt P13255); conditions: cited from earlier work
# GNMT, sequence (P13255 whole entry): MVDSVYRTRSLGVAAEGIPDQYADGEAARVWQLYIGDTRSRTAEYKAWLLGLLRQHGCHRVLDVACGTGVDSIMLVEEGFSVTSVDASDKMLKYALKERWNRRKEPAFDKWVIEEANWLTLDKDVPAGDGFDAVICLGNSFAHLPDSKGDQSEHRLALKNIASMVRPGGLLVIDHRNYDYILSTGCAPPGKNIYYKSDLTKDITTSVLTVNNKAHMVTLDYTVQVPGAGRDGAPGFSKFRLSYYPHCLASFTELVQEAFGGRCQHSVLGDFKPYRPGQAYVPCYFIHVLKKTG
# [3] = molecular target: T1, GsSDMT (Galdieria sulphuraria, UniProt M2XPA0); test: GsSDMT inhibition by sinefungin (UV-mode); type: biochemical; conditions: pH=6.80, SAM 763 μM, sarcosine 5 mM, 195 nM GsSDMT; read-out: inhibition constant Ki
# T1 sequence (M2XPA0 2-297): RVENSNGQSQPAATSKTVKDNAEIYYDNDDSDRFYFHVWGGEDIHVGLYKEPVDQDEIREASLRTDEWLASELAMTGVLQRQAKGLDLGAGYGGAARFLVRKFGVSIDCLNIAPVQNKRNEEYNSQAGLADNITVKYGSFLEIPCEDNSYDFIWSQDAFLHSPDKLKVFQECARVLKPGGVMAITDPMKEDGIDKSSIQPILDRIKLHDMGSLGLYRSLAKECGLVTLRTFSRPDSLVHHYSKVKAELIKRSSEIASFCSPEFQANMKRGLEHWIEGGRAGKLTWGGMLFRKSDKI
# Method: Briefly, kinetic parameters were determined at 20° C. in a UV-Star 96-well flat bottom plate (Greiner Bio-One, #655801) by continuous monitoring of absorbance at 263 nm using a SpectraMax M5 instrument (Molecular Devices). The 100-μL reaction mixtures from a set of two rows contained 100 mM phosphate buffer pH=6.80, 1 mM βME, 5% glycerol, […] MgCl2, 4 μM coupling deaminase TM0936, 195 nM GsSDMT, saturating level of SAM (763 μM) and various sinefungin concentrations (0.8-244 μM). In the first row, the sarcosine acceptor was omitted to account for background signal (i.e. natural catabolism of sinefungin and SAM decomposition). The methyltransfer reactions started upon addition of sarcosine (5 mM saturating final concentration). Volumes (60-μL) were transferred onto plate and absorbance signals were recorded. The initial rates of the reactions were corrected using data from first row experiments and plotted against sinefungin concentrations. Fit to the following Eq. 7 provided corresponding inhibition constant (Ki):
# where V and V0 are the initial velocity with and without inhibitor, respectively. The Michelis constant for SAM substrate is depicted as Km and [SAM] is the concentration of this same molecule. The inhibition constant for sinefungin is represented by Ki and [SIN] is the concentration of this inhibitor. The parameter γ is the Hill coefficient. […]
# [4] = molecular target: T2, NcDIM-5 (Neurospora crassa, UniProt Q8X225); test: Reported (literature) NcDIM-5 kinetics; type: biochemical; conditions: from reported values lit. (53)
# T2 construct: GST; made in house
# T2 sequence (Q8X225 1-331): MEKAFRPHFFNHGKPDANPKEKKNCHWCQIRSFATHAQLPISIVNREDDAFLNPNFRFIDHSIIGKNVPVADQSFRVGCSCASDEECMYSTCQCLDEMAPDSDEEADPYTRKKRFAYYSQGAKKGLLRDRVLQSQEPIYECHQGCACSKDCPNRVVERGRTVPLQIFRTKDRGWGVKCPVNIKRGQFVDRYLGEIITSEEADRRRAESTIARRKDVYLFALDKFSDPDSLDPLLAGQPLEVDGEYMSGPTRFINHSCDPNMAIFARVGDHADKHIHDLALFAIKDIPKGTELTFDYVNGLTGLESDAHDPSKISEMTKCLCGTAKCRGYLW
# [5] = molecular target: T2, NcDIM-5; conditions: literature values; cited from earlier work
# [6] = molecular target: T3, CePRMT5 (Caenorhabditis elegans, UniProt P46580); test: 1-Step EZ-MTase UV-based coupled assay, CePRMT5 kinetics; type: biochemical; conditions: pH=7.60, co-substrate saturating, 4 μM TM0936; 263 nm (282 nm for 8-aza-SAM)
# T3 construct: made in house
# T3 sequence (P46580 1-734): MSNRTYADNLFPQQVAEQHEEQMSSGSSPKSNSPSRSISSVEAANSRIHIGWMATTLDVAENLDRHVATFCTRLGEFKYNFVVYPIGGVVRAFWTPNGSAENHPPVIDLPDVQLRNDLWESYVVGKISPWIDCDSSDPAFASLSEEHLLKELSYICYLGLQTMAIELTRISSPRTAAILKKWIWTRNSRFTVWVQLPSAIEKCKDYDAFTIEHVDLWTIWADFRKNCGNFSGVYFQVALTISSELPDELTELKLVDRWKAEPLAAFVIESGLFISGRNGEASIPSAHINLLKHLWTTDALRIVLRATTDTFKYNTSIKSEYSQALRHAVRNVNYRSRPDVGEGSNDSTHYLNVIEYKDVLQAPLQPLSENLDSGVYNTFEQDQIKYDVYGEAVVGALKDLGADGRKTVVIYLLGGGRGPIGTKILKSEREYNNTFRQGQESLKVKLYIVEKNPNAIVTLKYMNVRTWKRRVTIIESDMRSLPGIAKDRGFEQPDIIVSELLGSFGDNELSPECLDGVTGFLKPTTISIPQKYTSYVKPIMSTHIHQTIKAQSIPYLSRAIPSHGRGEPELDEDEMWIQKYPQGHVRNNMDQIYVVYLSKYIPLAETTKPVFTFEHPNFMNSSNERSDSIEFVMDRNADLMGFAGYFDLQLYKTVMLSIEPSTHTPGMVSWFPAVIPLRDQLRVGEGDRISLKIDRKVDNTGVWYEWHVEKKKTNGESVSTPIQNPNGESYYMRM
# Method: The 250-μL reaction mixtures from a same row contained 50 mM phosphate buffer pH=7.60, 1 mM βME, 10% glycerol, 4 μM coupling deaminase TM0936, 300 nM CePRMT5 and various peptide concentrations (5-180 μM; in the first well, peptide acceptor was omitted to account for background signal—natural decomposition of SAM). The methyltransfer reactions started upon addition of SAM (25 μM saturating final concentration) and absorbance was recorded.
# The 250-μL reaction mixtures from a same row contained 50 mM phosphate buffer pH=7.60, 1 mM βME, 10% glycerol, 4 μM coupling deaminase TM0936, 300 nM CePRMT5 and various SAM concentrations (2.35-47.0 μM). […] Initial rates were first corrected for background signal, then plotted against SAM concentrations and fitted to the Morrison kinetic model to yield corresponding kinetic parameters.
# (§1) Kinetic behavior for 8-aza-SAM against MTases (acceptor sat.)—Briefly, kinetic parameters were determined at 20° C. in a UV-Star 96-well flat bottom plate (Greiner Bio-One, #655801) by continuous monitoring of absorbance at 282 nm using a SpectraMax M5 instrument (Molecular Devices). As for SAM experiments, the measurements consisted of two experimental subsets: MTase reactions (both 8-aza-SAM and acceptor added) and MTase blanks (8-aza-SAM was added without acceptor to account for natural 8-aza-SAM decomposition). The 250-μL (60-μL) reaction mixtures from a same row contained 50 mM phosphate buffer pH=7.60 (7.80), 1 mM βME, 10% glycerol (5% glycerol, 100 μM MgCl2), 4 μM coupling deaminase TM0936, either 1.5 μM CePRMT5 or 402 nM TbPRMT7 (or 610 nM GsSDMT) and various 8-aza-SAM concentrations. […] Initial rates were first corrected for background signal, then plotted against 8-aza-SAM concentrations and fitted to the Michaelis-Menten equation to yield corresponding kinetic parameters.
# [7] = molecular target: T3, CePRMT5; conditions: lit. (46); cited from earlier work
# [8] = molecular target: T4, TbPRMT7 (Trypanosoma brucei brucei, UniProt Q582G4); test: Fluorescence-based coupled assay, TbPRMT7 with 8-aza-SAM cofactor; type: biochemical; conditions: 8-aza-SAM 25.0 μM, pH=7.60, fluorescence-mode
# T4 construct: made in house
# T4 sequence (Q582G4 whole entry): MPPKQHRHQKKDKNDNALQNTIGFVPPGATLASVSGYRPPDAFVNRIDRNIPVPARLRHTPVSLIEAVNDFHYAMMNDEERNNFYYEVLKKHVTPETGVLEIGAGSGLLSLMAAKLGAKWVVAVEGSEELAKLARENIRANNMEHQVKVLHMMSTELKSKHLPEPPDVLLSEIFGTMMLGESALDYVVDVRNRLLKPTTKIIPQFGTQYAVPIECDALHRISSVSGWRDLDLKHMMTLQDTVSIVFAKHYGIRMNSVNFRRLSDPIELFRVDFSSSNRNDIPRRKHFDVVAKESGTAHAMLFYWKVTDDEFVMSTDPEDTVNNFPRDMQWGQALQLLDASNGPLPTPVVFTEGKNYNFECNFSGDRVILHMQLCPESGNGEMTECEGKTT
# Method: Briefly, the 250-μL reaction mixtures from a same row contained 25 mM phosphate buffer pH=7.60, 1 mM βME, 10% glycerol, 4 μM coupling deaminase TM0936, 805.2 nM TbPRMT7 and various peptide concentrations (0-144.55 μM. The first well contained only 8-aza-SAM without any coupling enzyme, nor methyltransferase; in the second well, peptide acceptor was omitted to account for background signal—natural decomposition of 8-aza-SAM). […]
# [9] = molecular target: T4, TbPRMT7; test: 1-Step EZ-MTase UV-based coupled assay, TbPRMT7 kinetics (incl. ionic strength); type: biochemical; conditions: pH=7.60, 25 mM phosphate, co-substrate saturating
# Method: Briefly, the 250-μL reaction mixtures from a same row contained 25 mM phosphate buffer pH=7.60, 1 mM βME, 10% glycerol, 4 μM coupling deaminase TM0936, 1.0 μM TbPRMT7 and various peptide concentrations (16.6-243.3 μM; in the first well, peptide acceptor was omitted to account for background signal—natural decomposition of SAM). Reactions started upon addition of SAM (25.8 μM saturating final concentration) and absorbance was recorded. […] Fit to the Michaelis-Menten model (Eq. 5) provided corresponding kinetic parameters:
# Briefly, the measurements consisted of two experimental subsets: MTase reactions (both SAM and peptide added) and MTase blanks (SAM was added without peptide to account for natural SAM decomposition). The 250-μL reaction mixtures from a same row contained 25 mM phosphate buffer pH=7.60, 1 mM βME, 10% glycerol, 4 μM coupling deaminase TM0936, 402 nM TbPRMT7 and various SAM concentrations (1.53-20.0 μM). […] Initial rates were first corrected for background signal, then plotted against SAM concentrations and fitted to the Morrison kinetic model to yield corresponding kinetic parameters.
# as §1, with “parameters. The kinetic data from CePRMT5 were fit to the following Eq. 6 to reflect substrate inhibition observed at higher 8-aza-SAM concentration:” for “parameters.”
# Experiments were conducted following TbPRMT7 protocol above. Briefly, the 250-μL reaction mixtures from a same row contained either 25, 50, 75 or 100 mM phosphate buffer pH=7.60, 1 mM βME, 10% glycerol, 4 μM coupling deaminase TM0936, 1.0 μM TbPRMT7 and various peptide concentrations (16.6-243.3 μM; in the first well, peptide acceptor was omitted to account for background signal—natural decomposition of SAM). Reactions started upon addition of SAM (25.8 μM saturating final concentration) and absorbance was recorded. […] The four fits to the Michaelis-Menten equation (kcat fixed at 29 h^−1) provided corresponding Km values and established impact of ionic strength onto this kinetic parameter.
molecule,measurement,setting,value
"C[C@H]1O[C@@H](n2cnc3c(N)ncnc32)[C@H](O)[C@@H]1O [5DOA, 5′-deoxy-adenosine]",conversion into 5DOI by PA3170,[1],full conversion
NCC(=O)O [glycine],Km,[2],130 µM
Nc1ncnc2c1ncn2[C@@H]1O[C@H](C[C@@H](N)CC[C@H](N)C(=O)O)[C@@H](O)[C@H]1O [sinefungin],Ki,[3],1800 ± 400 nM
"H3(1-20): H3(1-20) peptide harboring a N-terminal biotinylation, from previous report",overall catalytic efficiency,[4],19 µM⁻¹ h⁻¹
same,Km,[5],7.4 µM
same,kcat,[5],0.0383 s⁻¹
"H4(1-20): H4(1-20) peptide substrate for CePRMT and TbPRMT7, purchased from GenScript",Km,[6],26 ± 2 µM
same,kcat,[6],0.00914 ± 0.00022 s⁻¹
same,Km,[7],54 ± 4 µM
same,kcat,[7],0.00794 ± 0.00019 s⁻¹
same,Km,[8],71 ± 8 µM
same,kcat,[8],0.0108 ± 0.00056 s⁻¹
same,Km,[9],39 ± 3 µM
same,kcat,[9],0.00783 ± 0.00019 s⁻¹
